Laboratory results taken from the supplement of paper PMC9170038.

Tested on: MS2 coat protein
Assay: apparent KD of MS2 coat protein; designed switch direction (-1 OFF switch, 1 ON switch): -1; higher = weaker reporter binding
Summary of the method: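 For each design, the apparent KD is the median over clusters of curves fitted to normalised cluster fluorescence. Clusters held RNA switches with common flanks, transcribed on Illumina chips by stalled E. coli RNA polymerase. These were titrated with SNAP-549-labelled MS2 coat protein, doubling from 0.7 or 1.5 nM to 3 µM, without input, with 200 uM small-molecule ligand, or with an oligonucleotide input.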

[1] = input ligand: microRNA oligo, concentration not stated

Row | Sequence | apparent KD of MS2 coat protein (input ligand: FMN 200 uM) [nM] | apparent KD of MS2 coat protein [1] [nM] | apparent KD of MS2 coat protein (input ligand: none) [nM]
1 | ACAUGAGGAUCACCCAUGUCGAGUACAUGAGGAUCACCCAUGUAGGAUAUGGUUCGCUUUGCGUGCUAGAAGGAUAUAUGUUGA [salish99_ExNG3_r04_511] (Eterna round: R96, puzzle: Exclusion NG 3) | 780 | 297 | 457
2 | ACAUGAGGAUCACCCAUGUGAAAAGAAUGGCUGACACAGAGAUAGGAUAUGUGUGCAUAUCUAACACAGAAGGGUCAUGACUGG [Deportation 80 - Jieux - Exclusion NG 3] (Eterna round: R96, puzzle: Exclusion NG 3) | 41.6 | 34.2 | 40.1
3 | ACAUGAGGAUCACCCAUGUGAAAGAAAUGGCUGACUUUGAGCUAGGAUAUUUGUGCAUAUCAAACAAAGAAGGAGCAUUACUGG [Deportation 99 - Jieux - Exclusion NG 3] (Eterna round: R96, puzzle: Exclusion NG 3) | 20.4 | 16.9 | 20.6
4 | ACAUGAGGAUCACCCAUGUGCACGUAAUGGCUCAUGUAGAGUGAGGAUAUGCGUGGCGAACGAGCGCAGAAGGCACAAGACUGG [Deportation 17 - Jieux - Exclusion NG 3] (Eterna round: R96, puzzle: Exclusion NG 3) | 106 | 56.4 | 72.6
5 | ACAUGAGGAUCACCCAUGUUUGGCUGGUCCUCUCCGGCUGUCGAGGAUAUAGUACGGUAUCCGCGCUAGAAGGUGAGGGCCGGC [Aenatbe] (Eterna round: R96, puzzle: Exclusion NG 3) | 16.4 | 10.1 | 17.1
6 | ACAUGAGGAUCACCCAUGUUUGGCUGGUCGUCUCCGGCUGUCGAGGAUAUAGUACGGUAUCCGCGCUAGAAGGUGAGGGCCGGC [Raxeorer] (Eterna round: R96, puzzle: Exclusion NG 3) | 11.5 | 14.6 | 19.3
7 | ACAUGAGGAUCACCCAUGUUUGGCUGGUUCUCUCCGGCUGUUGAGGAUAUAGUCCGGUAUCCGCGCUAGAAGGUGAGGGCUGGC [Aenatbe mod 7] (Eterna round: R96, puzzle: Exclusion NG 3) | 13.5 | 15.8 | 24.2
8 | ACAUGAGGAUCACCCAUGUUUGGCUGGUUUUCUCCGGCUGUCGAGGAUAUAGUCCGGUAUCCGCGCUAGAAGGUGAGGGUCGGC [Aenatbe mod 3] (Eterna round: R96, puzzle: Exclusion NG 3) | 12.1 | 17.6 | 21.6
9 | ACAUGAGGGAAGGGAGGAGGGACAUGAGGAUCACCCAUGUCUCAGGAUAUAGAAGAAGAAAGAAACUAGAAGGGAGAGGAGGGU [Kawasakiqro] (Eterna round: R96, puzzle: Exclusion NG 3) | 29.7 | 16.6 | 25
10 | ACAUGCCUUGCAGGAUAUAGGACACAUGAGGAUCACCCAUGUGGUUUCAUGUCUAACCAAGCGUCCUAGAAGGGCGGGAACAUG [Ex NG2 #28] (Eterna round: R96, puzzle: Exclusion NG 2) | 44.9 | 25.8 | 36.5
11 | ACAUGUAAUGCAGGAUAUCUGACACAUGAGGAUCACCCAUGUGACCAGAGGAAUUGCUAAGAGUCGGAGAAGGGUAUGUACAUG [Ex NG2 #53] (Eterna round: R96, puzzle: Exclusion NG 2) | 19.4 | 12.8 | 19.7
12 | ACAUGUCAUCGAGGAUAUUGGACACAUGAGGAUCACCCAUGUACUCGGAGGCUCUACUAUGAGUUCGAGAAGGCGAUGUACAUG [Ex NG2 #75] (Eterna round: R96, puzzle: Exclusion NG 2) | 355 | 45.4 | 49.9
13 | ACAUGUCUUGUAGGAUAUAGUUGACAUGAGGAUCACCCAUGUUGAUUCAUGUCUAUCGAAAGGGACUAGAAGGACGAGAAUAUG [Ex NG2 #16] (Eterna round: R96, puzzle: Exclusion NG 2) | 87.5 | 20 | 32.2
14 | ACAUUACAUGAGGAUCACCCAUGUGAGGAUAUGGAGCGAGACUGUCCUGUCGCGUACACCAGAAGGCGCGGGUG [1st #51] (Eterna round: R97, puzzle: Exclusion 1) | 115 | – | 131
15 | ACCUCACAUGAGGAUCACCCAUGUCAGGAUAUCUAAUGUAGUCGCGUUCCCGACGCUAAGAGAAGGGACAUUAA [EX1 #34] (Eterna round: R97, puzzle: Exclusion 1) | 22.6 | – | 14.1
16 | ACCUCACAUGAGGAUCACCCAUGUCAGGAUAUCUAAUGUAGUCGCGUUCCCGACGCUAAGAGAAGGGACGUUAA [EX1 #35] (Eterna round: R97, puzzle: Exclusion 1) | 14.6 | – | 16.1

Row | Sequence | apparent KD of MS2 coat protein (input ligand: FMN 200 uM) [nM] | apparent KD of MS2 coat protein [1] [nM] | apparent KD of MS2 coat protein (input ligand: none) [nM]
17 | ACCUCCGCGAAGGAUAUUAGCACAUUGACAGAUUGAGAAGGUCGCACAUGAGGAUCACCCAUGUGAGGUCAUCC [Eternabot (L1) Solution 82] (Eterna round: R97, puzzle: Exclusion 6) | 19.3 | – | 21.5
18 | ACCUCUACGCUUUCCAAGGGUAGACCUGGUGUUUGUCACACAUGAGGAUCACCCAUGUGCACUGUGCGAGUCGAACA [solution 38] (Eterna round: R96, puzzle: Sensor v2, turn-off variant 2) | 49.5 | 40.2 | 50.6
19 | ACCUUACUGGUCAGGAUAUACAGUCUUUGGUGUGUGUAGAAGGGACAUGAGGAUCACCCAUGUAGGUUGUUUUA [alecazam62b] (Eterna round: R97, puzzle: Brourd's mod of Exclusion 4) | 237 | – | 165
20 | ACGAAGCUUUUUGCUCGUCACAUGAGGAUCACCCAUGUGGGCCCGGGCGCCCGGGCCGACAUCCCACUAGGACAUGU [#2] (Eterna round: R97, puzzle: Sensor, turn-off variant 1) | 104 | – | 122
21 | ACGCACACGCACGCACGCACACAUGAGGAUCACCCAUGUAAUUAGGAUAUAUUGAAGAACAGAGAAUAGAAGGAAUUACUCAUG [Default title] (Eterna round: R96, puzzle: Exclusion NG 3) | 105 | 88 | 70.7
22 | ACGCAUUGCCUUUGGUAGUGCGUAACAUGAGGAUCACCCAUGUAGGAUAUGGUAGGCUUUGCUUACCAGAAGGACAUAAUAAUU [JL ENG3 1.01] (Eterna round: R96, puzzle: Exclusion NG 3) | 54.1 | 21.7 | 26.1
23 | ACGCUACAUGAGGAUCACCCAUGUGAGGAUAUUUGAUCCAGGCAGCAAAGGAUGAUACGGAGAAGGUACAUGGU [Eternabot (L1) Solution 35] (Eterna round: R97, puzzle: Exclusion 1) | 265 | – | 147
24 | ACGGACUGAGGAUAUGCAUGCAGGAUACCUUAGUCCAAGGGACAUGAGGAUCACCCAUGUAGAAGGCGGAAAUA [Riedzaanor] (Eterna round: R97, puzzle: Exclusion 2) | 26.1 | – | 26.5
25 | ACGUACUCUGUAGGAUAUCGAUGAUGCAUGAUUCGAGAAGGACAUGAGGAUCACCCAUGUUUCAAAAGCAUACUAUGUGUAGUA [Design #2] (Eterna round: R96, puzzle: Exclusion NG 1) | 44.4 | 13.6 | 20.9
26 | ACUCGCACUGUAAGGAUAUGCAAUUACGAAAGUGAGCAGAAGGUACAUGAGGAUCACCCAUGUGCGAAUCAGUG [Eternabot (Original) Solution 36] (Eterna round: R97, puzzle: Brourd's mod of Exclusion 4) | 18.9 | – | 20
27 | ACUGGUCGAGGAUAUGCAAUCGUGCUUCGGCACGUAAGAUCACAUGAGGAUCACCCAUGUAGAAGGCGACCAGU [E2/3-A2] (Eterna round: R97, puzzle: Exclusion 2) | 81.7 | – | 21.2
28 | ACUGGUGCAGGAUAUACAAUCGUGCUUCGGCACGUAAGGUCACAUGAGGAUCACCCAUGUAGAAGGGCACCAGU [E2/2-D1] (Eterna round: R97, puzzle: Exclusion 2) | 177 | – | 26.2
29 | ACUGGUGCAGGAUAUGCAAUCGUGCUUCGGCACGUAAGGUCACAUGAGGAUCACCCAUGUAGAAGGGCACCAGU [E2/4-D1] (Eterna round: R97, puzzle: Exclusion 2) | 33.2 | – | 12.6
30 | ACUUAUAGAGGAUAUACAGUUAAUUACAUGAGGAUCACCCAUGUUCUUCAAUGUAUAUAAGUAGAAGGCUAAAGGA [Mat - Exclusion 5 - Eli Mod - D6] (Eterna round: R97, puzzle: Exclusion 5) | 198 | – | 19.3
31 | ACUUAUUGAGGAUAUACAGAAAAUUACAUGAGGAUCACCCAUGUUCUUCAAUGUAUAUAUGUAGAAGGCAGAAGAA [JL-ex5-4.26 Malcolm mod] (Eterna round: R97, puzzle: Exclusion 5) | 29.3 | – | 12.9
32 | ACUUAUUGAGGAUAUACAGAUUAUUACAUGAGGAUCACCCAUGUUCUUCAAUGUAUAUAUGUAGAAGGCAGAAGAA [JL-ex5-4.25 Malcolm mod] (Eterna round: R97, puzzle: Exclusion 5) | 179 | – | 56.7
